# Paper doi:10.1101/2025.04.09.647959
# Where two headings read alike, the source gives them in different places.
# B1: hCD40L-1 (LNA-T, 2'F-C) (XNA)
# DNA: GGGAGGAGGAAGCGGAAAAAGCAGGTGTGAAAAGGACGTCAAACGACGTGACACACAGACGACACGCCCGA
# modifications: all T are LNA-T; all C are 2'F-C; A and G ribo
# B2: hCD40L-4 (LNA-T, 2'F-C) (XNA)
# DNA: GGGAGGAGGAAGCGGACGATGAACAAGTTGAAAAGGAATTTAAACGAATTAACAACAGACGACACGCCCGA
# modifications: all T are LNA-T; all C are 2'F-C; A and G ribo
# Columns and labels:
# [1] = target: T1, human CD40 ligand (hCD40L) (Homo sapiens, UniProt P29965 113-261); assay: BLI
# [2] = target: T1, human CD40 ligand (hCD40L); assay: BLI; remark: listed apart in the source
# T1 sequence (P29965 113-261): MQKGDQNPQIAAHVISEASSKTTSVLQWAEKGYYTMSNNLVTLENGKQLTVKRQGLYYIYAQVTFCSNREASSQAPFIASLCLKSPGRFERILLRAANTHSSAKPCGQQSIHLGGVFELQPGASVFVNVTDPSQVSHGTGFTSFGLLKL
Binder,binding result [1],binding result [2]
B1,binds,
B2,,binds
